In US20200339702A1 (ULTRAHUMAN THIRTEEN, published 2020):
Where a chain is given by its changes, count along the chain named.

T1: rhesus monkey ERBB3 human Fc tagged recombinant protein (rhesus monkey (Macaca mulatta), UniProt P21860 20-643 (human entry), limits assumed)
T1 construct: also called rhesus ERBB3-Fc; rhERBB3
T1 chain: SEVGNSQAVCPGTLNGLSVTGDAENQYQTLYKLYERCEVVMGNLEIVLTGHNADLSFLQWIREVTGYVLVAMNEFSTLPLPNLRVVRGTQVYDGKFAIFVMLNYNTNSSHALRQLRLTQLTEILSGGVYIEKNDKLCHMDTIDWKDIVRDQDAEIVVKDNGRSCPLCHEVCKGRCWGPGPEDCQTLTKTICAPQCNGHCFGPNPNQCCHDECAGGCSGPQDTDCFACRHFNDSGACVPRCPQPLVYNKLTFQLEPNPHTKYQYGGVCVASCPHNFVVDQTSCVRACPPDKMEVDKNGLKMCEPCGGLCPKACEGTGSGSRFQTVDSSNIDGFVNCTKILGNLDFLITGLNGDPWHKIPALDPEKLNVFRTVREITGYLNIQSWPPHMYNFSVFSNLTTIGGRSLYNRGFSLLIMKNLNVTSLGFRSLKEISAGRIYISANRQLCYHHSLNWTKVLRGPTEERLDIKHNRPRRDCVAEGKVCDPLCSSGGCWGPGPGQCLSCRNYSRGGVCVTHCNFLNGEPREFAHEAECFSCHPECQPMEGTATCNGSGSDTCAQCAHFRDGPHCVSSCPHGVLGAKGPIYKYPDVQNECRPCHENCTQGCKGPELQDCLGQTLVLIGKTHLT

T2: rhesus ERBB3 on transiently transfected HEK-293 cells (rhesus monkey (Macaca mulatta), UniProt P21860 20-1342 (human entry))
T2 construct: also called rhesus ERBB3+ HEK-293 cells
T2 chain: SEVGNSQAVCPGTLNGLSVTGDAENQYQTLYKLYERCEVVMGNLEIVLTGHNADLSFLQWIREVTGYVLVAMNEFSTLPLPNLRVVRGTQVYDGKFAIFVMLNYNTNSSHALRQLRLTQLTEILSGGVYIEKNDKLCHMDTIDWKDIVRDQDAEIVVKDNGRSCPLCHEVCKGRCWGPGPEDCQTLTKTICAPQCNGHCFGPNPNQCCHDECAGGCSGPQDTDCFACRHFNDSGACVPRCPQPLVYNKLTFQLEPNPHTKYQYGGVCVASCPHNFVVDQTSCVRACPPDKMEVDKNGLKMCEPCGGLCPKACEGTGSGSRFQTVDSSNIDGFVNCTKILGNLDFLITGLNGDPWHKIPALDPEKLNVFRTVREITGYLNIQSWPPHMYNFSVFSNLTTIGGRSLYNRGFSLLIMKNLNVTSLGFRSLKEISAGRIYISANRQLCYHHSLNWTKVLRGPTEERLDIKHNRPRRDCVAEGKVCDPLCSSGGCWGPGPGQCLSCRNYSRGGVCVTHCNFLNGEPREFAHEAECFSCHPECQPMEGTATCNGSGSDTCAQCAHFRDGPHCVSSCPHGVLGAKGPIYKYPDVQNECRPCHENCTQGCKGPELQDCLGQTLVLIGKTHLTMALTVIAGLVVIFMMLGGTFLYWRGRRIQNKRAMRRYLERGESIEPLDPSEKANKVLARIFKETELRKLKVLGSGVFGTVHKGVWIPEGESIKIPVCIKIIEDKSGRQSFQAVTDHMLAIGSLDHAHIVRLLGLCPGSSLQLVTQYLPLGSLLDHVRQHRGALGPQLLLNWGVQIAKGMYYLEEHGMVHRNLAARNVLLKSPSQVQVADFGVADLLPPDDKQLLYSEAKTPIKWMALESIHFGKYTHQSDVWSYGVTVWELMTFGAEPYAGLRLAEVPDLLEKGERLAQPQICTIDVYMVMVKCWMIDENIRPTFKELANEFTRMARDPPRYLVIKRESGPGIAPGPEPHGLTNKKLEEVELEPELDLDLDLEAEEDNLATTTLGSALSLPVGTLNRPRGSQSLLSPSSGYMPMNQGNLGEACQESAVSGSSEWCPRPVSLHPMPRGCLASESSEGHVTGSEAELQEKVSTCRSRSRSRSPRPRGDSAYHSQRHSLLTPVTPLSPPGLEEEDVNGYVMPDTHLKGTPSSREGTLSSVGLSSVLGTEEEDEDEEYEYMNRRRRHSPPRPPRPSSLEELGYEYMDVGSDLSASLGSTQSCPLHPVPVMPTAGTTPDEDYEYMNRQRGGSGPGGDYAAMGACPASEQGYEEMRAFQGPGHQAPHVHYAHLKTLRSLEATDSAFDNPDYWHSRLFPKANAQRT

B1: 09D12 IgG1null (antibody, V domains shown)
VH: QVQLVESGGGLVKPGGSLRLSCAASGFTFSDYGMSWIRQAPGKGLEWVSTISDGGSYTYYADSVKGRFTISRDNAKNSLYLQMNSLRAEDTAVYYCAREYGDYDGFDYWGQGTLVTVSS
VL: DIQMTQSPSSLSASVGDRVTITCRASQSISSYLNWYQQKPGKAPKLLIYAASSLDSGVPSRFSGSGSGTDFTLTISSLQPEDFATYYCLQYDSTPLTFGGGTKVEIK
notes: Human IgG1null and human Ckappa
B2: TTP IgG1null (antibody, V domains shown)
VH: B1 VH with G54S, Y57T, T58I
VL: B1 VL with D55Q
notes: Designer clone; Human IgG1null and human Ckappa; also called Total Theoretically Possible clone

Columns and labels:
[1] = biological target: T3, human ERBB3 human Fc tagged recombinant protein (human, UniProt P21860 20-643); assay: direct binding ELISA on coated human ERBB3-Fc, IgG1null titrated
T3 construct: also called human ERBB3-Fc; huERBB3
Experimental: (§1) Binding and cross-reactivity of the lead panel to the recombinant proteins was initially assessed by binding ELISA. The human ERBB3 human Fc tagged recombinant protein and the rhesus monkey ERBB3 human Fc tagged recombinant protein were coated to the surface of MaxiSorp™ flat-bottom 96 well plate at 1 μg/ml. The purified IgG samples were titrated in two fold serial dilutions starting from 500 nM to 0.008 nM and allowed to bind to the coated antigens. The Fabs were detected using mouse anti-c-myc antibody followed by donkey anti-mouse IgG conjugated to horseradish peroxidase. The IgGs were detected using the mouse anti-human IgG conjugated to horseradish peroxidase. Binding signals were visualized with 3,3′,5,5′-Tetramethylbenzidine Substrate Solution (TMB) and the absorbance measured at 450 nm.

[2] = biological target: T1, rhesus monkey ERBB3 human Fc tagged …; assay: direct binding ELISA on coated rhesus ERBB3-Fc, IgG1null titrated
Experimental: as §1

[3] = biological target: T4, human ERBB3 on transiently transfected HEK-293 cells (human, UniProt P21860 20-1342); assay: flow cytometry, human ERBB3-transfected HEK-293
T4 construct: also called human ERBB3+ HEK-293 cells
Experimental: (§2) Purified IgGs were tested in FACs for binding to human and rhesus monkey ERBB3 expressed on transiently transfected HEK-293 cells and HEK-293 wild-type cells. The IgG samples were titrated in three-fold serial dilutions starting at 500 nM to 0.008 nM. Binding of IgGs was detected with a mouse anti-human IgG conjugated to FITC. Results were analyzed by examining the Mean Fluorescence Intensity (MFI) of 10000 cells per sample in the BL-1 channel detector of a flow cytometer (Attune™ NxT Acoustic Focusing Cytometer, Invitrogen/ThermoFisher Scientific).
(§3) Antibodies to ERBB3 were analysed for concentration-dependent binding at the cell surface via flow cytometry. HEK-293 cells were transiently transfected with either human or rhesus ERBB3 full-length cDNAs. Anti-ERBB3 IgGs and an isotype control were then all tested in IgG1null format, over a concentration range of 500-0.008 nM for binding to human (FIG. 5A) and rhesus (FIG. 5B) transfected cells.

[4] = biological target: T2, rhesus ERBB3 on transiently transfected …; assay: flow cytometry, rhesus ERBB3-transfected HEK-293
Experimental: as §2, §3

Binder	EC50 (read off the curve) [1] [nM]	EC50 (read off the curve) [2] [nM]	maximum MFI, fold over isotype control background [3] [fold]	maximum MFI, fold over isotype control background [4] [fold]
B1	~0.2	~0.1	> 20	> 20
B2	~0.3	~0.2	> 20	> 20
